Source: patent publication US20090089899A1, “Method for Enhancing Drought Stress Tolerance in Plants by Active AREB1” (priority 2005, published 2009)

B1: full-length AREB1: full-length Arabidopsis thaliana AREB1 protein (SEQ ID NO: 2), expressed from full-length cDNA under 35S promoter (protein, listed as Arabidopsis thaliana)
chain: MDGSMNLGNEPPGDGGGGGGLTRQGSIYSLTFDEFQSSVGKDFGSMNMDELLKNIWSAEETQAMASGVVPVLGGGQEGLQLQRQGSLTLPRTLSQKTVDQVWKDLSKVGSSGVGGSNLSQVAQAQSQSQSQRQQTLGEVTLEEFLVRAGVVREEAQVAARAQIAENNKGGYFGNDANTGFSVEFQQPSPRVVAAGVMGNLGAETANSLQVQGSSLPLNVNGARTTYQQSQQQQPIMPKQPGFGYGTQMGQLNSPGIRGGGLVGLGDQSLTNNVGFVQGASAAIPGALGVGAVSPVTPLSSEGIGKSNGDSSSLSPSPYMFNGGVRGRKSGTVEKVVERRQRRMIKNRESAARSRARKQAYTVELEAEVAKLKEENDELQRKQARIMEMQKNQETEMRNLLQGGPKKKLRRTESGPW

Tests used:
RD29B gene = test: RNA gel blot (Northern) analysis of downstream gene RD29B in transformed plants; assay type: in vivo, Arabidopsis thaliana
Description: Extraction of total RNA from plant bodies and RNA gel blot analysis using the total RNA were performed according to the method of Satoh et al (2004, Plant Cell Physiol. 45, 309-317) using a Shakemaster crusher (Bio Medical Science, Tokyo, Japan). Furthermore, probes for RNA gel blot analysis were prepared according to the method of Maruyama et al (2004, Plant J. 38, 982-993).
To prepare a pBE2113Not-AREB1 plasmid, the entire coding region of AREB1 was amplified by PCR using a primer with a Not I linker and then the resultant was introduced into pBE2113Not (Liu et al., 1998, Plant Cell 10, 1391-1406) in the sense orientation. pBE2113Not-AREB1ΔQT was prepared by amplifying the coding region of AREB1ΔQT by PCR using primers with Xba I and BamH I linkers and then introducing the resultant into the Xba I/BamH I site of pBE2113Not in the sense orientation.
To produce transformed plants with 35S-AREB1 and 35S-AREB1ΔQT, transformation vectors, pBE2113Not-AREB1 and pBE2113Not-AREB1ΔQT, were introduced into Arabidopsis thaliana (Columbia) by a suction-infiltration method (Osakabe et al., 2005, Plant Cell 17, 1105-1119) using the Agrobacterium tumefaciens C58 strain.
Here, it was examined whether or not overexpression of ABRE1ΔQT in Arabidopsis thaliana would activate the transcription of a downstream gene such as RD29B in the absence of external ABA. […]

RD29B-GUS reporter gene = test: Transient expression (transactivation) analysis with RD29B-GUS reporter in protoplasts of Arabidopsis thaliana T87 cells; assay type: cell-based; conditions: in the presence of 50 μM abscisic acid (ABA)
Description: Analysis of transient expression was performed using protoplasts derived from Arabidopsis thaliana T87 cells according to a slightly modified version of the method of Fujita et al (2004, Plant J. 39, 863-876) and the method of Satoh et al (2004, Plant Cell Physiol. 45, 309-317). Protoplast isolation and gene introduction were all performed at room temperature (25° C. to 28° C.). Protoplasts in which the gene had been introduced were allowed to stand for 16 to 20 hours at 22° C. in the dark. An enzyme solution [0.4 M mannitol, 1.5% (w/v) cellulase “Onozuka” R-10 (Yakult, Tokyo, Japan), 0.3% (w/v) macerozyme R-10 (Yakult), 0.1% (w/v) bovine serum albumin, 10 mM CaCl2, 20 mM KCl, and 20 mM MES, pH 5.7] was prepared according to the method of Sheen (2002) (http://genetics.mgh.harvard.edu/sheenweb/).
A DNA fragment containing a portion or the whole of AREB1 cDNA was amplified by PCR and then the product was cloned into the Not I site of an expression vector pBI35SΩ (Abe et al., 1997, Plant Cell 9, 1859-1868). Thus, a plasmid having an AREB1 bZIP DNA binding domain was prepared. The plasmid was then used for an experiment for the analysis of transient expression. To remove a 640-base-pair fragment that was partially cleaved with EcoT14I from the pBI35SΩ-AREB1 plasmid, self-binding ligase reaction was performed after partial cleavage with EcoT14I. […]

Molecule | expression of the downstream gene RD29B (Northern analysis) (RD29B gene; wild-type (WT) and vector control plants, 50 μM ABA, 7 hours) | GUS activity (RD29B-GUS reporter) (RD29B-GUS reporter gene) | expression of the downstream RD29B gene (Northern analysis) (RD29B gene; 2-week-old seedlings of transformed plants, in the absence of ABA)
CC1=CC(=O)CC(C)(C)[C@@]1(O)/C=C/C(C)=C\C(=O)O [ABA, abscisic acid, reference compound] | could be confirmed only in the presence of 50 μM ABA |  | 
B1 |  | significant enhancement in GUS activity | not observed
